# US20190314526A1
# Like-named read-outs stand apart in the source and are kept apart here.
# Tests used:
# [1] = biological target: AAV-2 capsid mutant E394K (rAAV-2 virion) (AAV-2) (UniProt P03135); assay: cell-based or functional assay
# [2] = biological target: AAV-2 capsid mutant E411A (rAAV-2 virion) (AAV-2) (UniProt P03135); assay: cell-based or functional assay
# [3] = biological target: AAV-2 capsid mutant E437A (rAAV-2 virion) (AAV-2) (UniProt P03135); assay: cell-based or functional assay
# [4] = biological target: AAV-2 capsid mutant K395A (rAAV-2 virion) (AAV-2) (UniProt P03135); assay: cell-based or functional assay
# [5] = biological target: AAV-2 capsid mutant K407A (rAAV-2 virion) (AAV-2) (UniProt P03135); assay: cell-based or functional assay
# [6] = biological target: AAV-2 capsid mutant K569A (rAAV-2 virion) (AAV-2) (UniProt P03135); assay: cell-based or functional assay
# [7] = biological target: AAV-2 capsid mutant Q126A (rAAV-2 virion) (AAV-2) (UniProt P03135); assay: cell-based or functional assay
# [8] = biological target: AAV-2 capsid mutant Q248A (rAAV-2 virion) (AAV-2) (UniProt P03135); assay: cell-based or functional assay
# [9] = biological target: AAV-2 capsid mutant S127A (rAAV-2 virion) (AAV-2) (UniProt P03135); assay: cell-based or functional assay
# [10] = biological target: AAV-2 capsid mutant S247A (rAAV-2 virion) (AAV-2) (UniProt P03135); assay: cell-based or functional assay
# [11] = biological target: AAV-2 capsid mutant V571A (rAAV-2 virion) (AAV-2) (UniProt P03135); assay: cell-based or functional assay
# [12] = biological target: AAV-2 capsid mutant V571K (rAAV-2 virion) (AAV-2) (UniProt P03135); assay: cell-based or functional assay
# [13] = biological target: AAV-2 capsid mutant W365A (rAAV-2 virion) (AAV-2) (UniProt P03135); assay: cell-based or functional assay
# [14] = biological target: AAV-2 with a wild-type capsid (rAAV-2 virion) (AAV-2) (UniProt P03135); assay: cell-based or functional assay
# [15] = biological target: AAV-2 capsid mutant D132N (rAAV-2 virion) (AAV-2) (UniProt P03135); assay: all-A20 ELISA, against wild type
# [16] = biological target: AAV-2 capsid mutant D357E (rAAV-2 virion) (AAV-2) (UniProt P03135); assay: all-A20 ELISA, against wild type
# [17] = biological target: AAV-2 capsid mutant E393D (rAAV-2 virion) (AAV-2) (UniProt P03135); assay: all-A20 ELISA, against wild type
# [18] = biological target: AAV-2 capsid mutant E411A/T413A (rAAV-2 virion) (AAV-2) (UniProt P03135); assay: all-A20 ELISA, against wild type
# [19] = biological target: AAV-2 capsid mutant E411A/T413A/G449A/N450A (rAAV-2 virion) (AAV-2) (UniProt P03135); assay: all-A20 ELISA, against wild type
# [20] = biological target: AAV-2 capsid mutant G246A (rAAV-2 virion) (AAV-2) (UniProt P03135); assay: all-A20 ELISA, against wild type
# [21] = biological target: AAV-2 capsid mutant G449A (rAAV-2 virion) (AAV-2) (UniProt P03135); assay: all-A20 ELISA, against wild type
# [22] = biological target: AAV-2 capsid mutant G449A/N568A (rAAV-2 virion) (AAV-2) (UniProt P03135); assay: all-A20 ELISA, against wild type
# [23] = biological target: AAV-2 capsid mutant H134Q (rAAV-2 virion) (AAV-2) (UniProt P03135); assay: all-A20 ELISA, against wild type
# [24] = biological target: AAV-2 capsid mutant H372K (rAAV-2 virion) (AAV-2) (UniProt P03135); assay: all-A20 ELISA, against wild type
# [25] = biological target: AAV-2 capsid mutant H372Q (rAAV-2 virion) (AAV-2) (UniProt P03135); assay: all-A20 ELISA, against wild type
# [26] = biological target: AAV-2 capsid mutant N360H (rAAV-2 virion) (AAV-2) (UniProt P03135); assay: all-A20 ELISA, against wild type
# [27] = biological target: AAV-2 capsid mutant N568A (rAAV-2 virion) (AAV-2) (UniProt P03135); assay: all-A20 ELISA, against wild type
# [28] = biological target: AAV-2 capsid mutant N568A/V571A (rAAV-2 virion) (AAV-2) (UniProt P03135); assay: all-A20 ELISA, against wild type
# [29] = biological target: AAV-2 capsid mutant N568K (rAAV-2 virion) (AAV-2) (UniProt P03135); assay: all-A20 ELISA, against wild type
# [30] = biological target: AAV-2 capsid mutant R334A (rAAV-2 virion) (AAV-2) (UniProt P03135); assay: all-A20 ELISA, against wild type
# [31] = biological target: AAV-2 capsid mutant R334A/G449A (rAAV-2 virion) (AAV-2) (UniProt P03135); assay: all-A20 ELISA, against wild type
# [32] = biological target: AAV-2 capsid mutant R334A/G449A/N568A (rAAV-2 virion) (AAV-2) (UniProt P03135); assay: all-A20 ELISA, against wild type
# [33] = biological target: AAV-2 capsid mutant R334A/N568A (rAAV-2 virion) (AAV-2) (UniProt P03135); assay: all-A20 ELISA, against wild type
# [34] = biological target: AAV-2 capsid mutant S130A (rAAV-2 virion) (AAV-2) (UniProt P03135); assay: all-A20 ELISA, against wild type
# [35] = biological target: AAV-2 capsid mutant S130T (rAAV-2 virion) (AAV-2) (UniProt P03135); assay: all-A20 ELISA, against wild type
# [36] = biological target: AAV-2 capsid mutant T413K (rAAV-2 virion) (AAV-2) (UniProt P03135); assay: all-A20 ELISA, against wild type
# [37] = biological target: AAV-2 capsid mutant V571K (rAAV-2 virion) (AAV-2) (UniProt P03135); assay: all-A20 ELISA, against wild type
# [38] = biological target: AAV-2 with a wild-type capsid (rAAV-2 virion) (AAV-2) (UniProt P03135); assay: all-A20 ELISA, virus needed for half maximal OD, against wild type
# [39] = biological target: caprine (goat) AAV capsid (caprine rAAV virion) (caprine AAV); assay: cell-based or functional assay
# [40] = biological target: primate AAV-8 capsid (rAAV virion) (primate AAV-8); assay: cell-based or functional assay
# [41] = biological target: bovine AAV-C1 capsid (AAV-C1-LacZ vector) (bovine AAV); assay: cell-based or functional assay
# [42] = biological target: caprine (goat) AAV capsid (caprine rAAV virion) (caprine AAV); assay: cell-based or functional assay; remark: listed apart in the source
# [43] = biological target: primate AAV-1 capsid (rAAV virion) (primate AAV-1); assay: cell-based or functional assay
# [44] = biological target: primate AAV-3B capsid (rAAV virion) (primate AAV-3B); assay: cell-based or functional assay
# [45] = biological target: primate AAV-4 capsid (rAAV virion) (primate AAV-4); assay: cell-based or functional assay
# [46] = biological target: primate AAV-5 capsid (rAAV virion) (primate AAV-5); assay: cell-based or functional assay
# [47] = biological target: primate AAV-6 capsid (rAAV virion) (primate AAV-6); assay: cell-based or functional assay
# [48] = biological target: primate AAV-8 capsid (rAAV virion) (primate AAV-8); assay: cell-based or functional assay; remark: listed apart in the source
substance,measurement,setting,value
murine monoclonal antibody A20 (protein A-purified anti-AAV-2 mouse monoclonal antibody),Fold decrease in A20 titer,[1],0.9 fold
same,Fold decrease in A20 titer,[2],2.7 fold
same,Fold decrease in A20 titer,[3],0.8 fold
same,Fold decrease in A20 titer,[4],0.9 fold
same,Fold decrease in A20 titer,[5],1.6 fold
same,Fold decrease in A20 titer,[6],1.7 fold
same,Fold decrease in neutralizing titer,[7],2.5 fold
same,neutralizing titer of A20 (reciprocal dilution),[7],203
same,Fold decrease in neutralizing titer,[8],5.7 fold
same,neutralizing titer of A20 (reciprocal dilution),[8],89
same,Fold decrease in neutralizing titer,[9],57 fold
same,neutralizing titer of A20 (reciprocal dilution),[9],9
same,Fold decrease in neutralizing titer,[10],2.8 fold
same,neutralizing titer of A20 (reciprocal dilution),[10],180
same,Fold decrease in A20 titer,[11],1.4 fold
same,Fold decrease in A20 titer,[12],217 fold
same,Fold decrease in A20 titer,[13],0.5 fold
same,% neutralized at dilutions of A20 greater than 1:1000,[14],< 3%
same,Fold decrease in neutralizing titer,[14],1 fold
same,neutralizing titer of A20 (reciprocal dilution),[14],509
same,Fold decrease in binding of murine A20,[15],1 fold
same,Fold decrease in binding of murine A20,[16],1 fold
same,Fold decrease in binding of murine A20,[17],1 fold
same,Fold decrease in binding of murine A20,[18],1 fold
same,Fold decrease in binding of murine A20,[19],1 fold
same,Fold decrease in binding of murine A20,[20],1 fold
same,Fold decrease in binding of murine A20,[21],1 fold
same,Fold decrease in binding of murine A20,[22],1 fold
same,Fold decrease in binding of murine A20,[23],1 fold
same,Fold decrease in binding of murine A20,[24],1 fold
same,Fold decrease in binding of murine A20,[25],1 fold
same,Fold decrease in binding of murine A20,[26],1 fold
same,Fold decrease in binding of murine A20,[27],1 fold
same,Fold decrease in binding of murine A20,[28],1 fold
same,Fold decrease in binding of murine A20,[29],1 fold
same,Fold decrease in binding of murine A20,[30],1 fold
same,Fold decrease in binding of murine A20,[31],1 fold
same,Fold decrease in binding of murine A20,[32],1 fold
same,Fold decrease in binding of murine A20,[33],1 fold
same,Fold decrease in binding of murine A20,[34],1 fold
same,Fold decrease in binding of murine A20,[35],1 fold
same,Fold decrease in binding of murine A20,[36],1 fold
same,Fold decrease in binding of murine A20,[37],10 fold
same,Fold decrease in binding of murine A20,[38],1 fold
"purified pooled human IgG IVIG-8 (Panglobulin Lot #1838-00351, ZLB Bioplasma AG)",Lowest concentration of IVIG showing >50% neutralization of the virus,[39],40 mg/mL
same,Lowest concentration of IVIG showing >50% neutralization of the virus,[40],10 mg/mL
same,% blue cells compared to the control at IVIg 8 0.01 ug/ul,[14],100%
same,% blue cells compared to the control at IVIg 8 0.1 ug/ul,[14],100%
same,% blue cells compared to the control at IVIg 8 10 ug/ul,[14],2%
same,% blue cells compared to the control at IVIg 8 50 ug/ul,[14],0%
same,Lowest concentration of IVIG showing >50% neutralization of the virus,[14],10 mg/mL
same,lowest concentration of IVIG showing more than 50% neutralization,[14],0.2 mg/mL
same,fold more resistant to neutralization by human IVIG than AAV-2,[41],16 fold
same,lowest concentration of IVIG showing more than 50% neutralization,[41],3.25 mg/mL
same,% of control transduction at IVIg 8 0.1 ug/ul,[42],120%
same,% of control transduction at IVIg 8 1 ug/ul,[42],93%
same,% of control transduction at IVIg 8 10 ug/ul,[42],80%
same,% of control transduction at IVIg 8 40 ug/ul,[42],14%
same,% of control transduction at IVIg 8 50 ug/ul,[42],8%
same,Lowest concentration of IVIG showing >50% neutralization of the virus,[42],50 mg/mL
same,% blue cells compared to the control at IVIg 8 0.01 ug/ul,[43],100%
same,% blue cells compared to the control at IVIg 8 0.1 ug/ul,[43],86%
same,% blue cells compared to the control at IVIg 8 10 ug/ul,[43],14%
same,% blue cells compared to the control at IVIg 8 50 ug/ul,[43],0%
same,Lowest concentration of IVIG showing >50% neutralization of the virus,[43],10 mg/mL
same,% blue cells compared to the control at IVIg 8 0.01 ug/ul,[44],92%
same,% blue cells compared to the control at IVIg 8 1 ug/ul,[44],45%
same,% blue cells compared to the control at IVIg 8 10 ug/ul,[44],0%
same,% blue cells compared to the control at IVIg 8 50 ug/ul,[44],0%
same,Lowest concentration of IVIG showing >50% neutralization of the virus,[44],1 mg/mL
same,% blue cells compared to the control at IVIg 8 0.01 ug/ul,[45],100%
same,% blue cells compared to the control at IVIg 8 0.1 ug/ul,[45],100%
same,% blue cells compared to the control at IVIg 8 1 ug/ul,[45],100%
same,% blue cells compared to the control at IVIg 8 50 ug/ul,[45],49%
same,Lowest concentration of IVIG showing >50% neutralization of the virus,[45],50 mg/mL
same,% blue cells compared to the control at IVIg 8 0.1 ug/ul,[46],17%
same,% blue cells compared to the control at IVIg 8 1 ug/ul,[46],1%
same,% blue cells compared to the control at IVIg 8 10 ug/ul,[46],1%
same,% blue cells compared to the control at IVIg 8 50 ug/ul,[46],0%
same,Lowest concentration of IVIG showing >50% neutralization of the virus,[46],0.1 mg/mL
same,% blue cells compared to the control at IVIg 8 0.01 ug/ul,[47],100%
same,% blue cells compared to the control at IVIg 8 0.1 ug/ul,[47],81%
same,% blue cells compared to the control at IVIg 8 10 ug/ul,[47],14%
same,% blue cells compared to the control at IVIg 8 50 ug/ul,[47],0%
same,Lowest concentration of IVIG showing >50% neutralization of the virus,[47],10 mg/mL
same,% blue cells compared to the control at IVIg 8 0.01 ug/ul,[48],90%
same,% blue cells compared to the control at IVIg 8 0.1 ug/ul,[48],88%
same,% blue cells compared to the control at IVIg 8 1 ug/ul,[48],77%
same,% blue cells compared to the control at IVIg 8 50 ug/ul,[48],0%
same,% of control transduction at IVIg 8 0.1 ug/ul,[48],105%
same,% of control transduction at IVIg 8 10 ug/ul,[48],44%
same,% of control transduction at IVIg 8 20 ug/ul,[48],11%
same,% of control transduction at IVIg 8 40 ug/ul,[48],0%
same,% of control transduction at IVIg 8 50 ug/ul,[48],0%
same,Lowest concentration of IVIG showing >50% neutralization of the virus,[48],50 mg/mL
